# Reference: patent US20150246947A1 (BAXALTA, published 2015)
# Where two headings read alike, the source gives them in different places.
# T1: human Protein S (UniProt P07225 42-676)
# T1 chain: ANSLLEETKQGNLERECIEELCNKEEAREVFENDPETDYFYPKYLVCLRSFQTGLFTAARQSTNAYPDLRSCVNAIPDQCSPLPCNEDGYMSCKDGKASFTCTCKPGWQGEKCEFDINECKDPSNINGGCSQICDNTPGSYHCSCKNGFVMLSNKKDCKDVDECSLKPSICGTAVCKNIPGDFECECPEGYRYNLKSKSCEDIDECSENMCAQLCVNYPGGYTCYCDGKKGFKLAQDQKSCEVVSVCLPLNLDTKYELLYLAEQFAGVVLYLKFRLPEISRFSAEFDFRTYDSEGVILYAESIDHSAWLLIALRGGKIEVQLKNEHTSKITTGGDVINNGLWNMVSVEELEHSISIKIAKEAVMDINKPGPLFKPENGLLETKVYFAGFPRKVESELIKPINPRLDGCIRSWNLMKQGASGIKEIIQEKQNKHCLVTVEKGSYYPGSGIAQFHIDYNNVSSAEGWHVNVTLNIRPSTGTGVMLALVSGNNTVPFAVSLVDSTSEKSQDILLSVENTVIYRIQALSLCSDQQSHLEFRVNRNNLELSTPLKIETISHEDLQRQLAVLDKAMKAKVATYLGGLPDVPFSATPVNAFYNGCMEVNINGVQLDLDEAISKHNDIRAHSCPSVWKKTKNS
# Assays:
# human Protein S [1] = molecular target: T1, human Protein S; assay: LANCE competition
# Method in brief: (§1)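 IC50 was derived by non-linear regression of the acceptor emission in a LANCE time-resolved FRET competition assay using europium-labelled Protein S, ULight-labelled streptavidin, a biotinylated tracer peptide and three-fold titrations of unlabelled test peptide. Reactions of 50 µl contained 10 nM Protein S, 100 nM streptavidin and 300 nM tracer at final concentration (2 nM Protein S and 60 nM tracer on a Tecan F500), were kept 1 hour at room temperature, and were read at Ex 340 nm, Em 665 nm.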
# human Protein S [2] = molecular target: T1, human Protein S; assay: LANCE competition
# Method in brief: as §1
Binder,IC50 (human Protein S [1]) [nM],IC50 (human Protein S [2]) [nM]
Ac-EAMVSAGWYDYMNDTYYEFE-NH2 [JBS3293],2.1,
Ac-DVYVSAGWYDYNEDTYYEFS-NH2 [JBS3288],3.1,
Ac-YGIVSAGWYEYNTDIYEEFW-NH2 [JBS3257],14.8,
Ac-KVEVSAGWYDYNKDVYYEFE-NH2 [JBS3299],2,
Ac-EVEVSAGWYDYNDDKYYEFG-NH2 [JBS3276],3,
Ac-YNIVSAGWYDYNKDTYYEFF-NH2 [JBS3279],1.5,
Ac-NMYVSAGWYNYNEDTYEEFY-NH2 [JBS3289],2.5,
Ac-FGIISAGWYDYNEDAYSEFY-NH2 [JBS3270],1.2,
Ac-NYIVSAGWYDYNNDEYIEFY-NH2 [JBS3286],1.3,
Ac-FEYVIAGWYDYNTDTYHEFN-NH2 [JBS3272],1.4,
Ac-KDKVSAGWYDYNSDTYYEFT-NH2 [JBS3300],3.2,
Ac-ESIVSAGWYDYNTDTYYEFT-NH2 [JBS3268],1.5,
Ac-EVHVSAGWYDYNNDTYYEFG-NH2 [JBS3275],1.2,
Ac-EFIVSAGWYDYNKDTYIEFE-NH2 [JBS3292],2.7,
Ac-EATVSIGWYDYNKDEYYEFY-NH2 [JBS3291],8,
Ac-FEYVSAGWYDYNTDTYYEFY-NH2 [JBS3271],1.9,
Ac-EVYVSAGWYNYNEDAYYEFW-NH2 [JBS3287],1.2,
Ac-EYYVSAGWYDYNSDTYQEFI-NH2 [JBS3244],,4.7

Binder,IC50 (human Protein S [1]) [nM],IC50 (human Protein S [2]) [nM]
Ac-VFYVSAGWYDYNDDKYYEFW-NH2 [JBS3304],1.5,
Ac-WYEVEIGWYDYNTDTYQEFY-NH2 [JBS3308],1.4,
Ac-RYIVSAGWYDIIQDTYFEFY-NH2 [JBS3285],1.2,
Ac-HYNVSAGWYDYNNDEYFEFY-NH2 [JBS3307],1.4,
Ac-EYFVSAGWYDYNADIYYEFD-NH2 [JBS3278],1.1,
Ac-NMEVSAGWYDYNSDTYHEFW-NH2 [JBS3290],3.4,
Ac-EYTISAGWYDYNTDMYYEFV-NH2 [JBS3254],1.6,
Ac-EVEVSAGWYEYNTDTYYEFW-NH2 [JBS3282],4.1,
Ac-YGIVEAGWYEYNTDEYIEFW-NH2 [JBS3256],1.7,
Ac-FGIVSAGWYDYNTDTYYEPY-NH2 [JBS3269],56.9,
Ac-EYTVSAGWYNYNADEYYEFE-NH2 [JBS3253],2.8,
Ac-EYYVSAGWYDYNTDTYYEFD-NH2 [JBS3231],,1.5
Ac-ITHVTAGWYDYNTDTYYEFI-NH2 [JBS3302],3.5,
Ac-EYEVSAGWYDYNNDVYNEFY-NH2 [JBS3277],3.4,
Ac-VIEVSAGWYDYNEDKYYEFW-NH2 [JBS3303],1.7,
Ac-EYSVSAGWYDYNTDVYYEFE-NH2 [JBS3266],1.6,
Ac-EYYVSAGWYDYNNDTYYEFE-NH2 [JBS3233],,0.9

# The next lines start with the values.
IC50 (human Protein S [1]) [nM],IC50 (human Protein S [2]) [nM],Binder
1.3,,Ac-IIMVSAGWYDYNTDTYYEFE-NH2 [JBS3301]
3.7,,Ac-EGYVSAGWYDYNKDIYLEFE-NH2 [JBS3259]
6.3,,Ac-EHIVSAGWYDYNMDEYYEFW-NH2 [JBS3294]
1,,Ac-ESYVSAGWYDYNTDTYYEFY-NH2 [JBS3262]
1,,Ac-KMHVSIGWYDYNNDIYYEFY-NH2 [JBS3298]
,1.1,Ac-EYTVSAGWYDYNNDIYFEFY-NH2 [JBS3219]
1.1,,Ac-YVTVSAGWYDYNKDEYFEFY-NH2 [JBS3309]
5.3,,Ac-YNEVSAGWYDMNEDTYYEFY-NH2 [JBS3280]
,12.8,Ac-EEYVSAGWYDMNRDTYTEFY-NH2 [JBS3252]
,3.7,Ac-EYYVSAGWYDYNYDVYTEFE-NH2 [JBS3248]
1.7,,Ac-ESIVSAGWYDYNTDEYYEFF-NH2 [JBS3267]
2,,Ac-ESYVSAGWYDYNIDAYYEFY-NH2 [JBS3261]
2,,Ac-EYIVEAGWYDINEDKYLEFY-NH2 [JBS3264]
3.7,,Ac-AYIVEAGWYDYNTDTYEEFW-NH2 [JBS3305]
9.5,,Ac-EYTASAGWYDYNSDTYYEFE-NH2 [JBS3255]
0.5,,EYYVSAGWYDYNTDTYYEFEC [JBS3320]
1.4,,Ac-EYSVSAGWYDYYNDTYYEFY-NH2 [JBS3265]
